Test results: patent US20100260765A1 (AstraZeneca / MedImmune, published 2010)
Where a chain is given by its changes, count along the chain named.

B1: 32F4 (antibody, V domains shown)
VH: QLQLQESGPGLVKPSGTLSLSCTVSGGSISSRSDYWGWIRQPPGKGLEWIGTIYYSGNTFYNPSLKSRVTISVDTSKKQFSLKLSSVTAADTAVYYCARQQLVLYYFDYWGQGTLVTVSS
VL: EIVLTQSPGTLSLSPGERATLSCRTSQSVSSSYLAWYQQKPGQAPRLLIYGASSRATGVPDRFSGSGSGTDFSLTISRLEPEDFAVYYCQQYGSSPPLTFGGGTKVEIK
B2: 33D5 (antibody, V domains shown)
VH: QVQLVQSGAEVKKPGASVKVSCKASGYTFGSYDINWVRQATGQGLEWMGWMNPNSGNTGYAQKFQGRVTLTRNTSIRTVYMELSSLRSEDTAVYYCARGGYSNLGWFDPWGQGSLVTVSS
VL: DIQMTQSPSSVSVSVGDRVTITCRASQGISSWLAWYQQKPGKAPKLLIYAASSLQSGVPSRFSGSGSGTDFTLTISSLQPEDFATYYCQQANSFPFTFGPGTKVDIK
B3: 33E1 (antibody, V domains shown)
VH: QVQLQESGPGLVKPSQTLSLTCTVSGGSISSGDHYWSWIRQHPGKGLEWIGHIYYSGSTDYNPSLKSRVTISVDTSKNHFSLKLNSVTAADTAVYYCARTNSSSWSDWYFDLWGRGTLVTVSS
VL: DIVMTQSPDSLAVSLGERATINCKSSQSILYSSNNKNYLAWYQRKPGQPPILLIHWASTRESGVPDRFSGSGSRTDFTLTISSLQAEDVAVYYCQQYFITPWTFGQGTKVEIK
B4: 29D4 (antibody, V domains shown)
VH: B1 VH with G16E, S21T, D34N, N58H, F60Y, T70S, K78N, A90T, V94L, D108E
VL: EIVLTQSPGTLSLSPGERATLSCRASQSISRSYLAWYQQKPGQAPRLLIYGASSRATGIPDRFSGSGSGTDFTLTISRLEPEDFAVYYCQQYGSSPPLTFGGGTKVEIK
B5: 32F4 (antibody, V domains shown)
VH: B1 VH
VL: B1 VL
B6: 33B1 (antibody, V domains shown)
VH: EVQLVESGGGLVKPGGSLRLSCAASGFTFSSYTMNWVRQAPGKGLEWVSFIDSRSSYIYYADSVKGRFTISRDNAKNSLYLQMNSLRAEDTAVYYCSKDDWFEELWGQGTLVTVSS
VL: DIQMTQSPSSLSASVGDRVTITCRASQGIRNDLGWYQQKPGKAPKRLIYATSSLQSGVPSRFSGSGSGTEFTLTISSLQPEDFATYYCLHHNSFPWTFGQGTKVEIK
B7: 31E11 (antibody, V domains shown)
VH: QVQLVESGGGLVKPGGSLRLSCAASGFTFSDYYMSWIRQAPGKGLEWVSYISISGSTIYYADSVKGRFTISRDNAKNSLYLQMNSLRAEDTAVYYCARDDFWSGYYFNWFDPWGQGTLVTVSS
VL: DIQMTQSPSSLSASVGDRVTITCRANQTISTFLNWYQQNPGKAPKLLIYAASSLQSGVPSRFSGSGSGTDFTLTISSLQPEDFATYYCQQTYIIPLTFGGGTKVEIK
B8: 21H6 (antibody, V domains shown)
VH: QVQLVESGGGLVKPGGSLRLSCAASGFTFSDYYMSWIRQAPGKGLEWVSYISNSGITIYYADSVKGRFTISRDNAKNSLYLQMNSLRAGDTAVYYCAREEWYSSRWYRNFDYWGQGTLVTVSS
VL: DIQMTQFSSSLSASVGDRVTITCRASQSISRYLNWYQQKPGKAPKLLIYAASSLQSGVPSRFNGSGSGTDFTLTISSLQPEDFATYYCQQSYSAPLTFGGGTKVEIK
B9: 22B8 (antibody, V domains shown)
VH: QLQLQESGPGLVKPSETLSLTCTVSGGSISSRYYYWGWVRQPPGKGLEWIGTIYYSGHTYYNPSLKTRVTISVDTSKNQFSLKLISVTAADTAVYYCATQQLVLYYFDFWGQGTLVTVSS
VL: EIVLTQSPGTLSLSPGERAALSCRASQSISSSYLAWYQQRPGQAPRLLIYGASSRATGIPDRFNGSGSGTDFTLTISRLEPEDFAVYYCQQFGSSITFGQGTRLEIK
B10: 27A3 (antibody, V domains shown)
VH: B1 VH with G16E, S21T, N58D, F60Y, K78N
VL: B1 VL with T25A, G51A, A52T, S54N, V59I, S73T, Y92H

molecular target: T1, KDR (human, UniProt P35968 20-1356); assay: cell-based or functional assay
T1 sequence (P35968 20-1356): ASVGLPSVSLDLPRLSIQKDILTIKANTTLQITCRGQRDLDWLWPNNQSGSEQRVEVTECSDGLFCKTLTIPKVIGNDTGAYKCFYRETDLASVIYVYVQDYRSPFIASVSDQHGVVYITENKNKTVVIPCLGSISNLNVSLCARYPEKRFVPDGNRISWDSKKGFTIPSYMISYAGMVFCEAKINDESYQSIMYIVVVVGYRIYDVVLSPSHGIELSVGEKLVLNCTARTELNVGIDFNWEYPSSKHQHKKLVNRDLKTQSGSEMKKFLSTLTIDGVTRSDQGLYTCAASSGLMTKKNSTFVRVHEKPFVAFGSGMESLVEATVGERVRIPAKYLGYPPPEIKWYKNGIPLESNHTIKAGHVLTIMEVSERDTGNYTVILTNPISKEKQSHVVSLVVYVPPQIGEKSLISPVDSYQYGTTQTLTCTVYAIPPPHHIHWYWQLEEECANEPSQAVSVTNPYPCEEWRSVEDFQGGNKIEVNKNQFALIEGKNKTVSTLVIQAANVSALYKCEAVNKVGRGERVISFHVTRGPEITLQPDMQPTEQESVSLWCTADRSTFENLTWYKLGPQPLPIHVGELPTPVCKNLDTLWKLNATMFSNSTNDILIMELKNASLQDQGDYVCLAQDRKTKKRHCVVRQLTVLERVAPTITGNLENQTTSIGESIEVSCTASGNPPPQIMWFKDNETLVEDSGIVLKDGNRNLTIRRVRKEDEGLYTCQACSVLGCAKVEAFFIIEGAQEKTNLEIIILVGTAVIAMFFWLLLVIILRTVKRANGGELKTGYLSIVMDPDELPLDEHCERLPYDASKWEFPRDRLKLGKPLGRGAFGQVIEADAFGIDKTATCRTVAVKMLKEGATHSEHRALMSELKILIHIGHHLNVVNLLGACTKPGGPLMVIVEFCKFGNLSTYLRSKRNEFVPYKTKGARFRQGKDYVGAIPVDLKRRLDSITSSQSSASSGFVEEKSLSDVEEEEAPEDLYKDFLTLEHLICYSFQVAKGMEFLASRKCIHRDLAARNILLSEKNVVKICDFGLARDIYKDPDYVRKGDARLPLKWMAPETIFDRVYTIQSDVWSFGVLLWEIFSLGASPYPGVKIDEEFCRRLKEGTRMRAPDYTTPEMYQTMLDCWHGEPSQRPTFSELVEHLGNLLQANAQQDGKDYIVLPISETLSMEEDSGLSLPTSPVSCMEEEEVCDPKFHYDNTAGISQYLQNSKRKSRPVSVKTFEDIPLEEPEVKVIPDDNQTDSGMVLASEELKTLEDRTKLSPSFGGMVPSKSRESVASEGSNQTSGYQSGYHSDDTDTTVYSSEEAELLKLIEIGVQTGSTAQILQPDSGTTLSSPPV

Row | Activity at 133 nM (% Inhibition), 1-hour Pre-incubation at 4° C., Average [%] | Activity at 133 nM (% Inhibition), 1-hour Pre-incubation at 4° C., N = 1 [%] | Activity at 133 nM (% Inhibition), 1-hour Pre-incubation at 4° C., N = 2 [%] | Binder
1 | 64 | 60 | 68 | B1
2 | 49 | 39 | 60 | B2

molecular target: T1, KDR; assay: cell-based or functional assay; remark: another data set of the same source

Row | Activity at 133 nM (% Inhibition), 24-hour Pre-incubation at 37° C., Average [%] | Activity at 133 nM (% Inhibition), 24-hour Pre-incubation at 37° C., N = 1 [%] | Activity at 133 nM (% Inhibition), 24-hour Pre-incubation at 37° C., N = 2 [%] | Binder
3 | 22 | 25 | 18 | B1
4 | -15 | 8 | -38 | B2

molecular target: T1, KDR; assay: cell-based or functional assay; remark: another data set of the same source

Row | Binder | Activity at 133 nM Antibody Concentration (% Survival Inhibition), Average [%] | Activity at 133 nM Antibody Concentration (% Survival Inhibition), N = 1 [%] | Activity at 133 nM Antibody Concentration (% Survival Inhibition), N = 2 [%]
5 | B1 | 73 | 88 | 58
6 | B2 | 5 | 13 | -2

molecular target: human KDR on cells (human, UniProt P35968 20-1356); assay: cell-based or functional assay
Sequence (P35968 20-1356): as above

Row | % Inhibition (Average) of VEGF-C-mediated KDR activity, antibody 1 nM [%] | % Inhibition (Average) of VEGF-C-mediated KDR activity, antibody 10 nM [%] | % Inhibition (Average) of VEGF-C-mediated KDR activity, antibody 100 nM [%] | % Inhibition (N = 1) of VEGF-C-mediated KDR activity, antibody 1 nM [%] | % Inhibition (N = 1) of VEGF-C-mediated KDR activity, antibody 10 nM [%] | % Inhibition (N = 1) of VEGF-C-mediated KDR activity, antibody 100 nM [%] | % Inhibition (N = 2) of VEGF-C-mediated KDR activity, antibody 1 nM [%] | % Inhibition (N = 2) of VEGF-C-mediated KDR activity, antibody 10 nM [%] | % Inhibition (N = 2) of VEGF-C-mediated KDR activity, antibody 100 nM [%] | Binder
7 | 32 | 69 | 79 | 29 | 75 | 83 | 36 | 64 | 75 | B3
8 | 34 | 71 | 76 | 42 | 71 | 74 | 25 | 72 | 79 | B4
9 | 43 | 77 | 81 | 55 | 76 | 75 | 31 | 79 | 86 | B5
10 | 49 | 62 | 68 | 45 | 61 | 64 | 53 | 62 | 73 | B6
11 | 40 | 83 | 84 | 47 | 81 | 84 | 33 | 85 | 84 | B7
12 | 28 | 84 | 94 | 23 | 78 | 93 | 34 | 90 | 95 | B8
13 | 27 | 65 | 74 | 38 | 74 | 71 | 17 | 56 | 77 | B9
14 | 39 | 78 | 75 | 40 | 75 | 73 | 38 | 80 | 77 | B10

molecular target: T1, KDR; assay: cell-based or functional assay; remark: another data set of the same source

Row | % of Max VEGF KDR pTyr Activity (at 133 nM antibody concentration), Average [%] | % of Max VEGF KDR pTyr Activity (at 133 nM antibody concentration), N = 1 [%] | % of Max VEGF KDR pTyr Activity (at 133 nM antibody concentration), N = 2 [%] | Binder
15 | 17 | 20 | 15 | B2

molecular target: T1, KDR; assay: cell-based or functional assay; remark: another data set of the same source

Row | % Inhibition of VEGF165-mediated 6-keto Prostaglandin F1α release at 133 nM Antibody Concentration, Average [%] | % Inhibition of VEGF165-mediated 6-keto Prostaglandin F1α release at 133 nM Antibody Concentration, N = 1 [%] | % Inhibition of VEGF165-mediated 6-keto Prostaglandin F1α release at 133 nM Antibody Concentration, N = 2 [%] | Binder
16 | 73 | 69 | 76 | B1
17 | 36 | 15 | 57 | B2
